In PMC9653487, “Structural basis for mechanotransduction in a potassium-dependent mechanosensitive ion channel” (Nature Communications, 2022):

Tests used:
[1] = target: the molecule itself; test: cryo-EM structure; single-particle cryo-EM of EcMscK G924S in 0.02% GDN, 20 mM Tris-HCl pH 8.0, 150 mM NaCl or 150 mM KCl (datasets combined); refined with C7 symmetry; closed, intermediate and open classes
[2] = target: the molecule itself; test: cryo-EM structure; single-particle cryo-EM of WT EcMscK in 0.02% GDN, 20 mM Tris-HCl pH 8.0, 150 mM NaCl; refined with C7 symmetry

B1: E. coli MscK (EcMscK) G924S gain-of-function mutant channel (natural protein, UniProt P77338 34-1120, looked up)
chain: RASSNGDLPTKADLQAQLDSLNKQKDLSAQDKLVQQDLTDTLATLDKIDRIKEETVQLRQKVAEAPEKMRQATAALTALSDVDNDEETRKILSTLSLRQLETRVAQALDDLQNAQNDLASYNSQLVSLQTQPERVQNAMYNASQQLQQIRSRLDGTDVGETALRPSQKVLMQAQQALLNAEIDQQRKSLEGNTVLQDTLQKQRDYVTANSARLEHQLQLLQEAVNSKRLTLTEKTAQEAVSPDEAARIQANPLVKQELEINQQLSQRLITATENGNQLMQQNIKVKNWLERALQSERNIKEQIAVLKGSLLLSRILYQQQQTLPSADELENMTNRIADLRLEQFEVNQQRDALFQSDAFVNKLEEGHTNEVNSEVHDALLQVVDMRRELLDQLNKQLGNQLMMAINLQINQQQLMSVSKNLKSILTQQIFWVNSNRPMDWDWIKAFPQSLKDEFKSMKITVNWQKAWPAVFIAFLAGLPLLLIAGLIHWRLGWLKAYQQKLASAVGSLRNDSQLNTPKAILIDLIRALPVCLIILAVGLILLTMQLNISELLWSFSKKLAIFWLVFGLCWKVLEKNGVAVRHFGMPEQQTSHWRRQIVRISLALLPIHFWSVVAELSPLHLMDDVLGQAMIFFNLLLIAFLVWPMCRESWRDKESHTMRLVTITVLSIIPIALMVLTATGYFYTTLRLAGRWIETVYLVIIWNLLYQTVLRGLSVAARRIAWRRALARRQNLVKEGAEGAEPPEEPTIALEQVNQQTLRITMLLMFALFGVMFWAIWSDLITVFSYLDSITLWHYNGTEAGAAVVKNVTMGSLLFAIIASMVAWALIRNLPGLLEVLVLSRLNMRQGASYAITTILNYIIIAVGAMTVFGSLGVSWDKLQWLAAALSVGLSFGLQEIFGNFVSGLIILFERPVRIGDTVTIGSFSGTVSKIRIRATTITDFDRKEVIIPNKAFVTERLINWSLTDTTTRLVIRLGVAYGSDLEKVRKVLLKAATEHPRVMHEPMPEVFFTAFGASTLDHELRLYVRELRDRSRTVDELNRTIDQLCRENDINIAFNQLEVHLHNEKGDEVTEVKRDYKGDDPTPAVG
notes: E. coli mechanosensitive channel MscK, 1120 amino acids, full length, with the point mutation G924S made by site-directed mutagenesis; Homoheptamer; closed, intermediate and open conformations came from the same sample; A few residues of the PreScission site are left at the C-terminus after cleavage; The deposited models lack unresolved parts, and some segments are polyalanine; also called G924S …
In the case of B1, the “stoichiometry N” value [1] is reported as 7.

B2: E. coli MscK (EcMscK), full-length wild-type channel (natural protein, UniProt P77338 34-1120, looked up)
chain: RASSNGDLPTKADLQAQLDSLNKQKDLSAQDKLVQQDLTDTLATLDKIDRIKEETVQLRQKVAEAPEKMRQATAALTALSDVDNDEETRKILSTLSLRQLETRVAQALDDLQNAQNDLASYNSQLVSLQTQPERVQNAMYNASQQLQQIRSRLDGTDVGETALRPSQKVLMQAQQALLNAEIDQQRKSLEGNTVLQDTLQKQRDYVTANSARLEHQLQLLQEAVNSKRLTLTEKTAQEAVSPDEAARIQANPLVKQELEINQQLSQRLITATENGNQLMQQNIKVKNWLERALQSERNIKEQIAVLKGSLLLSRILYQQQQTLPSADELENMTNRIADLRLEQFEVNQQRDALFQSDAFVNKLEEGHTNEVNSEVHDALLQVVDMRRELLDQLNKQLGNQLMMAINLQINQQQLMSVSKNLKSILTQQIFWVNSNRPMDWDWIKAFPQSLKDEFKSMKITVNWQKAWPAVFIAFLAGLPLLLIAGLIHWRLGWLKAYQQKLASAVGSLRNDSQLNTPKAILIDLIRALPVCLIILAVGLILLTMQLNISELLWSFSKKLAIFWLVFGLCWKVLEKNGVAVRHFGMPEQQTSHWRRQIVRISLALLPIHFWSVVAELSPLHLMDDVLGQAMIFFNLLLIAFLVWPMCRESWRDKESHTMRLVTITVLSIIPIALMVLTATGYFYTTLRLAGRWIETVYLVIIWNLLYQTVLRGLSVAARRIAWRRALARRQNLVKEGAEGAEPPEEPTIALEQVNQQTLRITMLLMFALFGVMFWAIWSDLITVFSYLDSITLWHYNGTEAGAAVVKNVTMGSLLFAIIASMVAWALIRNLPGLLEVLVLSRLNMRQGASYAITTILNYIIIAVGAMTVFGSLGVSWDKLQWLAAALSVGLGFGLQEIFGNFVSGLIILFERPVRIGDTVTIGSFSGTVSKIRIRATTITDFDRKEVIIPNKAFVTERLINWSLTDTTTRLVIRLGVAYGSDLEKVRKVLLKAATEHPRVMHEPMPEVFFTAFGASTLDHELRLYVRELRDRSRTVDELNRTIDQLCRENDINIAFNQLEVHLHNEKGDEVTEVKRDYKGDDPTPAVG
notes: E. coli mechanosensitive channel MscK, 1120 amino acids, full length, codon-optimized synthetic DNA; Homoheptamer; A few residues of the PreScission site are left at the C-terminus after cleavage; also called WT EcMscK; WT channel; not shown: GFP, C-terminal, cleaved; His10, C-terminal, cleaved
B2: binds [2].
